This assay addresses T1, major tail protein gpV of bacteriophage lambda, in free tails (bacteriophage lambda), P03733.
T1 chain: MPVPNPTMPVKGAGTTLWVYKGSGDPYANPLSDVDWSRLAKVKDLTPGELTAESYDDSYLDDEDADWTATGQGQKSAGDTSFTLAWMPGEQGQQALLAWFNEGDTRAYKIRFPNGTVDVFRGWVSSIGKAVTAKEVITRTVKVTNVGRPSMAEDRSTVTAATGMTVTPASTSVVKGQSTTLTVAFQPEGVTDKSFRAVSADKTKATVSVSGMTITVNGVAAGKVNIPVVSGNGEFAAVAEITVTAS
Description: cryo-EM structure. Conditions: remark: other sources report otherwise.

B1: major tail protein gpV of bacteriophage lambda, in free tails, P03733 1-246 (natural protein)
chain: MPVPNPTMPVKGAGTTLWVYKGSGDPYANPLSDVDWSRLAKVKDLTPGELTAESYDDSYLDDEDADWTATGQGQKSAGDTSFTLAWMPGEQGQQALLAWFNEGDTRAYKIRFPNGTVDVFRGWVSSIGKAVTAKEVITRTVKVTNVGRPSMAEDRSTVTAATGMTVTPASTSVVKGQSTTLTVAFQPEGVTDKSFRAVSADKTKATVSVSGMTITVNGVAAGKVNIPVVSGNGEFAAVAEITVTAS
B1 registered a stoichiometry N of 6.

The values are drawn from publication PMC7575002.
